Source: article PMC6973309 (mAbs, 2020)

Target: BI 655089 (llama)
Test: flow cytometry on cells

binding result: binds
B1: human CX3CR1 (receptor, UniProt P49238 1-355, looked up)
chain: MDQFPESVTENFEYDDLAEACYIGDIVVFGTVFLSIFYSVIFAIGLVGNLLVVFALTNSKKPKSVTDIYLLNLALSDLLFVATLPFWTHYLINEKGLHNAMCKFTTAFFFIGFFGSIFFITVISIDRYLAIVLAANSMNNRTVQHGVTISLGVWAAAILVAAPQFMFTKQKENECLGDYPEVLQEIWPVLRNVETNFLGFLLPLLIMSYCYFRIIQTLFSCKNHKKAKAIKLILLVVIVFFLFWTPYNVMIFLETLKLYDFFPSCDMRKDLRLALSVTETVAFSHCCLNPLIYAFAGEKFRRYLYHLYGKCLAVLCGRSVHVDFSSSESQRSRHGSVLSSNFTYHTSDGDALLLL
